# Experiments:
# [1] = biological target: T1, CD3 heterodimer (Acro Biosystems) (UniProt P07766 23-126); test: SPR (Biacore T200), CD3 heterodimer on HC30M chip; value given for the high affinity CD3 Fab
# [2] = biological target: T1, CD3 heterodimer (Acro Biosystems); test: SPR (Biacore T200), CD3 heterodimer on HC30M chip; value given for the low affinity CD3 Fab
# [3] = biological target: T1, CD3 heterodimer (Acro Biosystems); test: SPR (Biacore T200), CD3 heterodimer on HC30M chip; value given for the mid affinity CD3 Fab
# T1 sequence (P07766 23-126, one chain of several): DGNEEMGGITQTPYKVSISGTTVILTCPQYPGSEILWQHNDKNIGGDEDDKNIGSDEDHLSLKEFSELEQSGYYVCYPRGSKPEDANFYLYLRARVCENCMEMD
binder,measurement,setting,value
"CDR-14 (bispecific antibody, no Fc) heavy: EVQLVESGGGLVQPGGSLRLSCAASGFTFSTYAMNWVRQAPGKGLEWVGRIRSKYNNYATYYADSVKGRFTISRDDSKNTLYLQMNSLRAEDTAVYYCVRHGNFGNSYVSWFAYWGQGTLVTVSSASTKGPSVFPLAPSSKSTSGGTAALGCLVKDYFPEPVTVSWNSGALTSGVHTFPAVLQSSGLYSLSSVVTVPSSSLGTQTYICNVNHKPSNTKVDKRVEPKSCGGGGSSYELTQPPSVSVSPGQTASITCTADTLSRSYASWYQQKPGQSPVLVIYRDTSRPSGIPERFSGSNSGNTATLTISGTQAMDEADYYCATSDGSGSNFQLFGGGTKLTVLGGGGGGSGGGGSGGGGSGGGGSESQVLESGGGSVQPGGSLRLSCTVSGFSLSNYAMSWVRQAPGKGLEYIGIVSSGGTTYYASWAKGRFTISKDTSKNTVYLQMNSLRAEDTASYYCAKDLYYGPTTYSAFNLWGQGTSVTVSS light: QAVVTQEPSLTVSPGGTVTLTCRSSTGAVTTSNYANWVQQKPGQAPRGLIGGTNKRAPGVPARFSGSLLGGKAALTISGAQPEDEADYYCALWYSNHWVFGGGTKLTVLGTVAAPSVFIFPPSDEQLKSGTASVVCLLNNFYPREAKVQWKVDNALQSGNSQESVTEQDSKDSTYSLSSTLTLSKADYEKHKVYACEVTHQGLSSPVTKSFNRGECGGGGSSYELTQPPSVSVSPGQTASITCTADTLSRSYASWYQQKPGQSPVLVIYRDTSRPSGIPERFSGSNSGNTATLTISGTQAMDEADYYCATSDGSGSNFQLFGGGTKLTVLGGGGGGSGGGGSGGGGSGGGGSESQVLESGGGSVQPGGSLRLSCTVSGFSLSNYAMSWVRQAPGKGLEYIGIVSSGGTTYYASWAKGRFTISKDTSKNTVYLQMNSLRAEDTASYYCAKDLYYGPTTYSAFNLWGQGTSVTVSS",Kd,[1],1.2 nM
"CDR-12 (bispecific antibody, no Fc) heavy: EVQLVESGGGLVQPGGSLRLSCAASGFTFSTYAMNWVRQAPGKGLEWVGRIRSKANNYATYYADSVKGRFTISRDDSKNTLYLQMNSLRAEDTAVYYCVRHGNFGDSYVSWFAYWGQGTLVTVSSASTKGPSVFPLAPSSKSTSGGTAALGCLVKDYFPEPVTVSWNSGALTSGVHTFPAVLQSSGLYSLSSVVTVPSSSLGTQTYICNVNHKPSNTKVDKRVEPKSCGGGGSSYELTQPPSVSVSPGQTASITCTADTLSRSYASWYQQKPGQSPVLVIYRDTSRPSGIPERFSGSNSGNTATLTISGTQAMDEADYYCATSDGSGSNFQLFGGGTKLTVLGGGGGGSGGGGSGGGGSGGGGSESQVLESGGGSVQPGGSLRLSCTVSGFSLSNYAMSWVRQAPGKGLEYIGIVSSGGTTYYASWAKGRFTISKDTSKNTVYLQMNSLRAEDTASYYCAKDLYYGPTTYSAFNLWGQGTSVTVSS light: QAVVTQEPSLTVSPGGTVTLTCGSSTGAVTTSNYANWVQQKPGKSPRGLIGGTNKRAPGVPARFSGSLLGGKAALTISGAQPEDEADYYCALWYSNHWVFGGGTKLTVLGTVAAPSVFIFPPSDEQLKSGTASVVCLLNNFYPREAKVQWKVDNALQSGNSQESVTEQDSKDSTYSLSSTLTLSKADYEKHKVYACEVTHQGLSSPVTKSFNRGECGGGGSSYELTQPPSVSVSPGQTASITCTADTLSRSYASWYQQKPGQSPVLVIYRDTSRPSGIPERFSGSNSGNTATLTISGTQAMDEADYYCATSDGSGSNFQLFGGGTKLTVLGGGGGGSGGGGSGGGGSGGGGSESQVLESGGGSVQPGGSLRLSCTVSGFSLSNYAMSWVRQAPGKGLEYIGIVSSGGTTYYASWAKGRFTISKDTSKNTVYLQMNSLRAEDTASYYCAKDLYYGPTTYSAFNLWGQGTSVTVSS",Kd,[2],54 nM
"CDR-13 (bispecific antibody, no Fc) heavy: EVQLVESGGGLVQPGGSLRLSCAASGFTFSTYAMNWVRQAPGKGLEWVGRIRSKYNNYATYYADSVKGRFTISRDDSKNTLYLQMNSLRAEDTAVYYCVRHGNFGDSYVSWFAYWGQGTLVTVSSASTKGPSVFPLAPSSKSTSGGTAALGCLVKDYFPEPVTVSWNSGALTSGVHTFPAVLQSSGLYSLSSVVTVPSSSLGTQTYICNVNHKPSNTKVDKRVEPKSCGGGGSSYELTQPPSVSVSPGQTASITCTADTLSRSYASWYQQKPGQSPVLVIYRDTSRPSGIPERFSGSNSGNTATLTISGTQAMDEADYYCATSDGSGSNFQLFGGGTKLTVLGGGGGGSGGGGSGGGGSGGGGSESQVLESGGGSVQPGGSLRLSCTVSGFSLSNYAMSWVRQAPGKGLEYIGIVSSGGTTYYASWAKGRFTISKDTSKNTVYLQMNSLRAEDTASYYCAKDLYYGPTTYSAFNLWGQGTSVTVSS light: QAVVTQEPSLTVSPGGTVTLTCGSSTGAVTTSNYANWVQQKPGKSPRGLIGGTNKRAPGVPARFSGSLLGGKAALTISGAQPEDEADYYCALWYSNHWVFGGGTKLTVLGTVAAPSVFIFPPSDEQLKSGTASVVCLLNNFYPREAKVQWKVDNALQSGNSQESVTEQDSKDSTYSLSSTLTLSKADYEKHKVYACEVTHQGLSSPVTKSFNRGECGGGGSSYELTQPPSVSVSPGQTASITCTADTLSRSYASWYQQKPGQSPVLVIYRDTSRPSGIPERFSGSNSGNTATLTISGTQAMDEADYYCATSDGSGSNFQLFGGGTKLTVLGGGGGGSGGGGSGGGGSGGGGSESQVLESGGGSVQPGGSLRLSCTVSGFSLSNYAMSWVRQAPGKGLEYIGIVSSGGTTYYASWAKGRFTISKDTSKNTVYLQMNSLRAEDTASYYCAKDLYYGPTTYSAFNLWGQGTSVTVSS",Kd,[3],11 nM
